Measurements: patent US20160347802A1 (MAX PLANCK GESELLSCHAFT ZUR FOERDERUNG DER WISSENSCHAFTEN E …, published 2016)

T1: zebrafish DraxinB, AVEXIS protein (zebrafish)
T1 chain: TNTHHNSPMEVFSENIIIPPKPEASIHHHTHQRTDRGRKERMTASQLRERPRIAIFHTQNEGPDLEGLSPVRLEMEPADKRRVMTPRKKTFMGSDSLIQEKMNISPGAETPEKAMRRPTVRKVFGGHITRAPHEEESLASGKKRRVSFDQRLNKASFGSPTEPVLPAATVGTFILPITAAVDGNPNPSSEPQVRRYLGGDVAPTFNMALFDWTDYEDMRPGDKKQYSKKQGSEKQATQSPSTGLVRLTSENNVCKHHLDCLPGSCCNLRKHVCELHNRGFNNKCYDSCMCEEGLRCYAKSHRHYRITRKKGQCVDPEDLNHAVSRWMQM

T2: human Netrin-4, AVEXIS protein (human, UniProt Q9HB63 19-628)
T2 construct: not shown: AVEXIS tag (bait or prey)
T2 sequence (looked up): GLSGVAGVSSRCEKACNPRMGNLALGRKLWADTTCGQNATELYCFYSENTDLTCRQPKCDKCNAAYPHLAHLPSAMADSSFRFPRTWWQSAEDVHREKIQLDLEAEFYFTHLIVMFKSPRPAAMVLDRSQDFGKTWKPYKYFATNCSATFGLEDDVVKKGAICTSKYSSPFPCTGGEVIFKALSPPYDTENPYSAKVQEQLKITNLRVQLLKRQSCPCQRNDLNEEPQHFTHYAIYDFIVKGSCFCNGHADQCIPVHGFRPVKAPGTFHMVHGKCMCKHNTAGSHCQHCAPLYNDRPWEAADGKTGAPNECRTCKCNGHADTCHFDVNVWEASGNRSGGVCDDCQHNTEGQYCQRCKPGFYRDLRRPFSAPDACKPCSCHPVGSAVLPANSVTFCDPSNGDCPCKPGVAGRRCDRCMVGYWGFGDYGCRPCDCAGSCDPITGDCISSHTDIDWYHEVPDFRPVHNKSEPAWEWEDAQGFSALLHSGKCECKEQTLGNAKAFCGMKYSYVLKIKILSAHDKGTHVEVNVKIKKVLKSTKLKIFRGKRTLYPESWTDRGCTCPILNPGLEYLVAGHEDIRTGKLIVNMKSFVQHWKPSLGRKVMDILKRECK

T3: human Netrin-G1, AVEXIS protein (human, UniProt Q9Y2I2 29-510)
T3 construct: not shown: AVEXIS tag (bait or prey)
T3 sequence (looked up): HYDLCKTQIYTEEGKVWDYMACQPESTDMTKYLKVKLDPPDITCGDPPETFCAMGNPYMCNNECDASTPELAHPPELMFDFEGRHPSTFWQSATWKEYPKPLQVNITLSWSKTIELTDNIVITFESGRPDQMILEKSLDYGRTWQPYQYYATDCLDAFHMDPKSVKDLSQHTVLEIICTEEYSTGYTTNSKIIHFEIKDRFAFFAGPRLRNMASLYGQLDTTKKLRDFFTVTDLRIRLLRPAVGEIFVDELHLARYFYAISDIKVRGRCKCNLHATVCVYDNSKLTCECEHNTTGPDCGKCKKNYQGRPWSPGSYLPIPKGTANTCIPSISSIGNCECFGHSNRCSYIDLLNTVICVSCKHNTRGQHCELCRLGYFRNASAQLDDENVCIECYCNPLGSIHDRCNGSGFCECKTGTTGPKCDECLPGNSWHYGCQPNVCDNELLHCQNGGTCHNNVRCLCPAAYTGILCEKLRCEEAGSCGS

T4: human Netrin-G2, AVEXIS protein (human, UniProt Q96CW9 18-507)
T4 construct: not shown: AVEXIS tag (bait or prey)
T4 sequence (looked up): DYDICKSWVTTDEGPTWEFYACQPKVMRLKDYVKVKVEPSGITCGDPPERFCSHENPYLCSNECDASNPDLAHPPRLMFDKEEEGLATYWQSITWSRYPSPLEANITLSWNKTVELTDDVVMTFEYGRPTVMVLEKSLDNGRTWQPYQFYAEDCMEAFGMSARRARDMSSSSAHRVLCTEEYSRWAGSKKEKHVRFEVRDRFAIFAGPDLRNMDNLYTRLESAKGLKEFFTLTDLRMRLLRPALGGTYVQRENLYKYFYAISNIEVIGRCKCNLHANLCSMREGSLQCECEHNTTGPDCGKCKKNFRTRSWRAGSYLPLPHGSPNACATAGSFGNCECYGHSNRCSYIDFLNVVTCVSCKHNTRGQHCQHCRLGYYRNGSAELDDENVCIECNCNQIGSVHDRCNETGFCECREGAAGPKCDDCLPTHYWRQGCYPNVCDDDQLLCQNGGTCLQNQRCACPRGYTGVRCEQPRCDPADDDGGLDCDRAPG

T5: human DRAXIN 21 amino acid Netrin binding fragment, AVEXIS prey or bait protein (human)
T5 construct: Tested in both bait and prey orientations; also called human 21 amino acid DRAXIN fragment; derived 21 amino acid peptide; not shown: AVEXIS tag (rat Cd4d3+4 and prey or bait module)
T5 peptide: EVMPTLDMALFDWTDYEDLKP

B1: zebrafish DraxinA, AVEXIS prey or bait protein (ligand)
chain: SEISSDNFKQSLTPSTTTSKEHPETGLTGGRQQKRHWSGKERDSAGLFSQRHMDRLEDDGTSMEGLSPVRLEMGPGDTMKAEVHGEVRASAQMRQGSHPAEGELNRKGRRHSHRLLAEHRKHGGKKDKGRGKGDLSDPEPELDSLLKDLNAFEDGLNTSPPNYNSVPLNEVPSPLSPILVTTAIKGHPPTLPPASTKPQKSSQGRTQGEVMPTLDMTLFDWTDYEDMKPADSWPSNKRKDKRRSKNKSNGNTTTEAGIVEPCDHHLDCLSGSCCDLREFECKPHNRGLNNKCFDDCMCEEGLRCYAKFHRKRRVTRRRGRCVDPESVNSNQGAFITV
notes: Prey and bait forms of the same protein are kept as one molecule; Preys are pentameric except in the monomeric-prey experiments; also called DraxinA prey protein
B2: human DRAXIN, AVEXIS prey or bait protein (ligand)
chain: GALAPGTPARNLPENHIDLPGPALWTPQASHHRRRGPGKKEWGPGLPSQAQDGAVVTATRQASRLPEAEGLLPEQSPAGLLQDKDLLLGLALPYPEKENRPPGWERTRKRSREHKRRRDRLRLHQGRALVRGPSSLMKKAELSEAQVLDAAMEESSTSLAPTMFFLTTFEAAPATEESLILPVTSLRPQQAQPRSDGEVMPTLDMALFDWTDYEDLKPDGWPSAKKKEKHRGKLSSDGNETSPAEGEPCDHHQDCLPGTCCDLREHLCTPHNRGLNNKCFDDCMCVEGLRCYAKFHRNRRVTRRKGRCVEPETANGDQGSFINV
notes: It was tested in both bait and prey orientations

Columns and labels:
[1] = biological target: B2; test: AVEXIS, pentameric prey human DRAXIN on bait zDraxinA
[2] = biological target: the molecule itself; test: AVEXIS, pentameric prey zebrafish DraxinA on bait zDraxinA
[3] = biological target: T1, zebrafish DraxinB, AVEXIS protein; test: AVEXIS, pentameric prey zebrafish DraxinA on bait zDraxinB
[4] = biological target: the molecule itself; test: AVEXIS, prey on bait zDraxinA, lower value; white = No binding
[5] = biological target: the molecule itself; test: AVEXIS, prey on bait zDraxinA, upper value; white = No binding
[6] = biological target: T1, zebrafish DraxinB, AVEXIS protein; test: AVEXIS, prey on bait zDraxinB, lower value; white = No binding
[7] = biological target: T1, zebrafish DraxinB, AVEXIS protein; test: AVEXIS, prey on bait zDraxinB, upper value; white = No binding
[8] = biological target: T2, human Netrin-4, AVEXIS protein; test: AVEXIS, prey NTN4 on bait DRAXIN
Description: (§1) The Matn4-bait served as an internal prey-protein control and was used for normalization of the A486 nm values; conditioned medium (CM) serves as negative control; n=3.

[9] = biological target: T6, biotinylated recombinant human UNC5B (human, UniProt Q8IZJ1 27-377); test: AVEXIS, prey DRAXIN on bait UNC5B
T6 construct: Made in HEK293-6E and immobilised on an SA chip
Description: as §1

[10] = biological target: T3, human Netrin-G1, AVEXIS protein; test: AVEXIS, prey NTNG1 on bait DRAXIN
Description: as §1

[11] = biological target: T4, human Netrin-G2, AVEXIS protein; test: AVEXIS, prey NTNG2 on bait DRAXIN
Description: as §1

[12] = biological target: T7, human Netrin1, recombinant AVEXIS protein (biotinylated when immobilised) (human, UniProt O95631 25-604); test: AVEXIS, prey on bait NTN1; dark = Binding
T7 construct: also called NTN1
Description: as §1

[13] = biological target: T2, human Netrin-4, AVEXIS protein; test: AVEXIS, prey on bait NTN4; white = No binding
Description: as §1

[14] = biological target: T3, human Netrin-G1, AVEXIS protein; test: AVEXIS, prey on bait NTNG1; white = No binding
Description: as §1

[15] = biological target: T4, human Netrin-G2, AVEXIS protein; test: AVEXIS, prey on bait NTNG2; white = No binding
Description: as §1

[16] = biological target: T6, biotinylated recombinant human UNC5B; test: AVEXIS, prey on bait UNC5B; white = No binding
Description: as §1

[17] = biological target: T5, human DRAXIN 21 amino acid Netrin …; test: AVEXIS, prey on bait DRAXIN 21aa; white = No binding
Description: as §1

[18] = biological target: B1; test: AVEXIS, prey on bait zDraxinA, lower value; white = No binding
[19] = biological target: B1; test: AVEXIS, prey on bait zDraxinA, upper value; white = No binding
[20] = biological target: T8, Matn4 ECD, mono-biotinylated bait protein (positive control); test: AVEXIS, prey on bait Matn4 (+), positive control for the prey; dark = Binding
T8 construct: extracellular domain; also called Matn4-bait
Description: as §1

| Binder | binding result [1] | binding result [2] | binding result [3] | A486nm [4] | A486nm [5] | A486nm [6] | A486nm [7] | binding result [8] | binding result [9] | binding result [10] | binding result [11] | A486nm [12] | A486nm [13] | A486nm [14] | A486nm [15] | A486nm [16] | A486nm [17] | A486nm [18] | A486nm [19] | A486nm [20] |
| --- | --- | --- | --- | --- | --- | --- | --- | --- | --- | --- | --- | --- | --- | --- | --- | --- | --- | --- | --- | --- |
| B1 | no binding | no binding | no binding | 0.06 | 0.062 | 0.059 | 0.057 |  |  |  |  |  |  |  |  |  |  |  |  |  |
| B2 |  |  |  |  |  | 0.058 | 0.056 | no binding | no binding | no binding | no binding | 0.361 | 0.076 | 0.077 | 0.072 | 0.078 | 0.063 | 0.06 | 0.06 | 0.213 |
